In the DeepSol protein solubility set:

assay: soluble on expression in E. coli; label from the status in PepcDB or PDB records

Sequence	soluble on expression in E. coli
MGSDKIHHHHHHLKALVVGLGSIGVRHLNNLHALEVRELGVVRSRNFPPPTEIVPKDIAVFQDIDLALSRKFDLVVVANPTSLHLETLIKALRAGSHVYVEKPVAHEKRRLSELTRYVSLDGPRVLVGCQFRMHPGLRKIEGWIRQGKLGKIHSVQVDLGEYLPGWHPWEDYRQSYAARADQGGGVVLTLIHELDYLHWLFGKPKSVFAIGGHRTSLDITAEDTALITFETEQDICVQLRMDYWRKPPVRHMNIVAENAIVDWDYPTRLTTLRQNGQVLDEMVLVPSWDRNELFLSMMKEFIEGIPRGSIPRVTLRDGIEVLKTALAVKKSLQTHRKVAL	not soluble
MKIPASSPQDTTNNNNNTNSTDSNHLSMDEHVMRSMDWDSIMKELELDDDSAPNSLKTGFTTTTTDSTILPLYAVDSNLPGFPDQIQPSDFESSSDVYPGQNQTTGYGFNSLDSVDNGGFDFIEDLIRVVDCVESDELQLAQVVLSRLNQRLRSPAGRPLQRAAFYFKEALGSFLTGSNRNPIRLSSWSEIVQRIRAIKEYSGISPIPLFSHFTANQAILDSLSSQSSSPFVHVVDFEIGFGGQYASLMREITEKSVSGGFLRVTAVVAEECAVETRLVKENLTQFAAEMKIRFQIEFVLMKTFEMLSFKAIRFVEGERTVVLISPAIFRRLSGITDFVNNLRRVSPKVVVFVDSEGWTEIAGSGSFRREFVSALEFYTMVLESLDAAAPPGDLVKKIVEAFVLRPKISAAVETAADRRHTGEMTWREAFCAAGMRPIQQSQFADFQAECLLEKAQVRGFHVAKRQGELVLCWHGRALVATSAWRF	soluble
MLQIEKIVSNKGNDLSLRWNLLKKIDHFQCLTSLTRLNLNDNQIEKLENLETLVNLVFLDVSYNRITKIEGLSELINLEELHLVHNKIITIEGLETNTAMKYLEFGDNRIQKMENLSHLVNLERLFLGANQIRKIEGLDGMAQLKELSLPGNALQIIEGLDTLSGLKSISLAQNGIRKIDGLSGLTNLKSLDLNDNIIEKLENVEQFKGISSLMIRKNKLNCWQDVRQLKKLENLTVLTMEMNPLYSSDYTYRNRVKEILPDVKLLDGFPIFWVQGDPYQPIPEEFYEMGDVYVTSPTFVGHDTGSILAIDCHPSGKKFITCGQKARTSNGLVVVWNAEPVLDKKKASNENVPKLLFQVESQSQSNSCRWSPDGKRFAFGSDDSSVSVWEYVGLINSMGSITGGAQNVERYKECCVLRGHSMEVLTVEWSPNGKYLASGSIDYRIIIYNARKLPDRITVLNDIQLPVKGLSWDPIGKYLASLEGDKKLRFWATDSWQCVKSVTEPFESNIEETMLTRLDWSPDGKYLMTPAAVRSGKPLIKLIQRQTWKSDQFLAGHHKGTTCVRAMPRLIEANLKNGKRMQLTCAAVGSRDKSISIWVFPGTLKPLFVINNIFNHTVMDFAWCGRNLLACSQDGTVKVIHLSESVIGEMISNEAMSDLCYQIYSIRPPRYELTDKEEDESQDSFNLSDLSSSANNASFVTCPEDVLIKRKKLVAAQQSSDIQLTKSMEDNSKENESKNSEKTMMEERNKQIDVRKDGKRRIQPVFCGTTTADPMTSLSSEGKKTVAPPPAKRKALAPAVPAKKGEVDLEDSSDSDDDDEEEEEDMEISDIESVRNKKRKVPATTSQPMLALDLKKPALRPMEPKSLKTQEGTVLMEAPEQQPKLSQHVVDRKGMFVEIDNRWKHGGVETTQIKLIKKKQQTAENEDDMMDGERRVNHECLWMAVLGSPVIIVAANKHNVVLGCGDKCLRVYRTFCGTHIVSLRLDSLPVLIGVTEHAAYALTENGRLSTWNLKLGKAVVTRQPLFDCVEASTDNSLISADVSETGVPLIVFSNGSIFTFNVSLSCWIQAITTNVLGRLTSPISDAQLSCSNGTTNSAGPLVRLLKRMRKQATAPGVAPQVVKAVKESQLEQLLHCAEQLGNPQDYQTMLMLYVETLCEGGSEKKLKNILNDLSRSGAPMQVCGLRRSALYDDVTRMIKLKQPAIAARIVAGVAASTTTKSLF	not soluble
MVAKQISKADIHLLRVFCIVVDSQGFSNAQVALNVATSTISRQISELETRLGMRLCDRGRSGFRVTEKGETVYQAAQKLFGALGEFQETVDGSRGRLFGHLALGIIENWASNTSAPIVQALSRFTDLAPDVTIELHSLAPDDIEFAVLDGRVPIGIGVFHSPKPGILYTKVCEERVCLYCGSGHPLFHMTNLEDEERVLRQAQFAKRAYLNEDVVAPKTRNLPSNATAHQMEAIALLILTDKYVGYLPSYFAEEWVAKGRMKIVAGGSFDRPVSVQTATRRGMKLNSVGRTFLDILTAEAVKQGG	not soluble
MGSDKIHHHHHHMRTEFIPPSVTRAAFRLPTLSRLPPLTALRAFVVAARHASFSRAAEELHVSTAAIGQQVRILETHLGQPLFSRQRGELVLTDAGSTLYPGLADAFETMIGSLSDLMASGSRRQVKVLAEGCFAARWLAPRLGRIVPALGDVDIWIESLEGDAIDLTQFDADCAIVATHGQIPGFIHEPLFADTVSAVCTPDFAARHQLCGEPERLRDISFAMLRGNGGDAAFEWANWLRACRIPLRLSATGPRFSRQTALIEAILSGHGIGLARHSLISDELKSGRLIAAFGTPQPTASRYHLLTSPDRRRLPEIASLLALLREDIRSLEAAA	not soluble
MATSMIQRLFKQGTKIVGVGLNYASHAKELGNALPKDPIVFLKPTSSYLENGGTIEIPHPLDSLHHEVELAVVIGQKARDVPERLAMNYIGGYALALDMTARELQVSAMASGLPCTLAKGQDTFTPISSVLPKAMVLDPNNLELWLKVDDETRQKGWTKDMIFKVPYLISYISSVMTLFKGDVILTGTPEGIGPVKIGQKITAGITGLSEVQFDVGRRLKPLLR	soluble
MGSDKIHHHHHHMNQFHLTEDQQDCLQELINIAMGQASDQLARYLDTFVYLKVPSIESVEAKDLMKTLSQQKNTVAVVSQGFFGYEGIRGEALLVYKEENSGRIADLLGYEPDELSQDEQLIDISSILTTTFLNVFAQQINNQLSYNAPKLLPNVQEILSEHLQQMPFTWDLALKVNINYQVTDYSFNCNMILLIPETAITNIKHVLDRILEEF	not soluble
GSMAISDPPNSSSVPLEGNGTILVKGNVTIIVEGNADITVKGDATTLVEGNQTNTVNGNLSWKVAGTVDWDVGGDWTEKMASMSSISSGQYTIDGSRIDIGSVEGYIPEAPRDGQAYVRKDGEWVFLSTFLVEHHHHHH	soluble
GVLPVEKCNLEDSACMTSAFQQALPTFVAGLPDHGVEVMDVLDLDDFAFDLSGLQFTLKEGKLKGLKGAVIDNVKWDLKKKNIEVDFHLDATVKGHYTAGGRILILPITGDGQMKLKLKNIHIHLVVSYEMEKDAEGVDHVIFKKYTVTFDVKDNAQFGLTNLFNGNKELSDTMLTFLNQNWKQVSEEFGKPVMEAAAKKIFKNIKHFLAKVPIAEIANV	soluble
SEELDRQKIGGFWREVGVASDQSLVLTAPKRVEGLFLTLSGSNLTVKVAYNSSGSCEIEKIVGSEIDSTGKFAFPGKCSCPVMAGGTRLCTQLGLIVPHAVPCTVPHAVPCTVLCAVPCTVPHAVP	soluble
GPGSMSRTQTSSKSVPKNIAVYCRVRPPVPNEKGHTFQNISYDDSDSRAIAVARKSGTKALEKTYLFNRVFRPTATQKDVYETFAKGAVDAAFDGQHGVLFVYGQTGSGKTFTISNDEPNNEGVLQRSMRDIWNRIASDTANDYSCSVSYVQLYNEILTDLLDDAKGKVRIQMGSEGRGDVVMVSDSTGMAIEREVKDYKSTMACFQVGLARKEMASTSMNSTSSRSHTIFTLNIVKAKKVVAVTVGTEAEGPTIALEGRLVLCDLAGSERVSKTHAEGKTLDEATHINRSLLTLGKVVTALTDNAQHAPFRESKLTRILQYSLMGNGNTSIIVNISPSDDNTEESLSAILFGQRASQIKQDAKRHEVLDYKALYMQLMAELDNKNDKTLEEALEEERGVYEERISALDEEMKLLSDENAMLRNENKQLRQYVPADRLKLIDETPSSGVSGANGEVVSGGWAKVNQDLRKLVQQRDERLKVISDERVRLALVVAEEKRKCFQLAQKMRSFAMRYKMEREQSTQRQEELCTELATLKGTDYLSAVGSFDATASPGSPNYPRENEEFNDAESAQAQIRALRAERMELMVYQAKAANAIRKLVKERDAAQRKVA	soluble
MSLDSLGAINKIQDFLQKQEYKTLEYNLTTTEVVMENVTAFWEEGFGELFEKAKQNNNNRKTSNGDDSLFFSNFSLLGTPVLKDINFKIERGQLLAVAGSTGAGKTSLLMMIMGELEPSEGKIKHSGRISFCSQFSWIMPGTIKENIIFGVSYDEYRYRSVIKACQLEEDISKFAEKDNIVLGEGGITLSGGQRARISLARAVYKDADLYLLDSPFGYLDVLTEKEIFESCVCKLMANKTRILVTSKMEHLKKADKILILMKVAAIFMGHFQNSKIYSQTLAQNSWDVILSTNLVQKEEIQS	soluble
MGSDKIHHHHHHLFNYFQLNDPKDFKHLLNMAGQDILINGKPARALITNTNLTESKDNRNITTLENIESGYLIDYDDGKWLVISEVSGKRYNKYKGIMQKCHNTLTVNIAGILHRVPYVVTNKVNLNIDVTYYLTVLENEIYILVANNTINSNIQLNDIYKIGRFNYKVISMDDISRPGLLLMKMKYSEEGQVLPNYSITILNGDTLTTDTATPVQLNVEQKDGETVLTNPLPMVFTSSDISIATVDSTGMVTPVSVGNVTITVSFESDTTVNDSIVITVEEVEVPETYTLELIGDTEIKQNQTKTYTAVKKNGLGDIVEGATFDFSIDPETTPADKYTLTVLDNTQCSIKANGATYYINLIATDRTDNSLTVSKRIWLKPLF	not soluble
MRCPWLIRVGVDIGGTFTDLIVFDEGSGRLESLKVLTTPREPWVGVIRALEEASVDIEGVDVVIHATTLGTNMFLGQEGLEPPSAVLITNRGFRDVLEIGRQNRPELYNLYFTRPKPLVPRDRRLVVKGRIDARGNVVEDIDRGEVARLAKEWCGRADVFIVSMLNSHINPVHEDEIGSIITREC	not soluble
MGSDKIHHHHHHMTKNNIAVKVDHVSKYFKLPVESTQSLRTALVNRFKGIKGYKKQHVLRDIDFEVEKGDFFGIVGRNGSGKSTLLKIISQIYVPEQGKVTVDGKLVSFIELGVGFNPELTGRENVYMNGAMLGFTTEEVDTMYQDIVDFAELQDFMNQKLKNYSSGMQVRLAFSVAIKAQGDVLILDEVLAVGDEAFQRKCNDYFLERKNSGKTTILVTHDMAAVKKYCNKAVLIDDGLIKAIGEPFDVANQYSLDNTDQIVEDKQEEEAAVQEEEQIVVDNLEVKLLSANRMTPRDSIRFEISYNVLADVGTYIALSLTDVDRNIWIYNDNSLDYLSSGSGKKRVFYECHLKSLNDIKLKLEVTVRDKQGQMLAFSSATNTPIISINRDDLEGDDKSAMDSASGLIQRNGQWQFS	not soluble
MEVFLLKLDSKNCPNKRLKTLEEVPENTAITVGNFDGVHLGHRYLIENLKKKAKSENLKTLVLTFCPHPLKVLAPQLLPCELTDINEKIEIFRELGVDYLCFIRFDKEFAKIRAREFLEKIIYEKLKCRYLLVGYDWRYGYRREGEIELAKEVGSELGFEVEEAKPFKIKGHIVSSTLIRRLLREGRVEEVREYLGHNYWVKRKVVKGDQRGSKIGFPTANLQNTENLCLKEGVYAVKVEDKYLGVANYGYRPTFGKKKRVLEVHILDFEGNLRGKRIKVEFLKFIREEKKFSSVEELIQQIKKDVEAVKGLSKLEHHHHHH	soluble
MGSSHHHHHHSSGLVPRGSHMNIPRFGVKTDQEELLAQELENLNKWGLNIFCVSDYAGGRSLTCIMYMIFQERDLLKKFRIPVDTMVTYMLTLEDHYHADVAYHNSLHAADVLQSTHVLLATPALDAVFTDLEILAALFAAAIHDVDHPGVSNQFLINTNSELALMYNDESVLENHHLAVGFKLLQEDNCDIFQNLSKRQRQSLRKMVIDMVLATDMSKHMTLLADLKTMVETKKVTSSGVLLLDNYSDRIQVLRNMVHCADLSNPTKPLELYRQWTDRIMAEFFQQGDRERERGMEISPMCDKHTASVEKSQVGFIDYIVHPLWETWADLVHPDAQEILDTLEDNRDWYYSAI	soluble
